Measured values reported in article PMC10987364.

Legend:
[1] = biological target: L-rhamnose isomerase (L-RIM) (Chloroflexus sp. origin (hot spring metagenome)); assay: native gel or EMSA; 10% Native PAGE of purified L-RIM, Coomassie stained; native mass against a marker
[2] = biological target: L-rhamnose isomerase (L-RIM) (Chloroflexus sp. origin (hot spring metagenome)); assay: SEC; Superdex 200 increase 10/300 GL, 50 mM Tris-Cl pH 7.0, 150 mM NaCl, 0.5 mL/min; calibrated with ovalbumin, conalbumin, aldolase and ferritin

stoichiometry N [1]: 4 | stoichiometry N [2]: 4
Substance: L-rhamnose isomerase (L-RIM) (enzyme)
